Assays:
Assay in all cases: EMSA
[1] = test system: T1, Dcp2 (Saccharomyces cerevisiae); details: EMSA: 10 nM Alexa Fluor 647 RPL41A RNA, 300 mM KOAc, 10 mM MES pH 7 or 5.8, 5 mM BME, temperature not given in material
T1 sequence: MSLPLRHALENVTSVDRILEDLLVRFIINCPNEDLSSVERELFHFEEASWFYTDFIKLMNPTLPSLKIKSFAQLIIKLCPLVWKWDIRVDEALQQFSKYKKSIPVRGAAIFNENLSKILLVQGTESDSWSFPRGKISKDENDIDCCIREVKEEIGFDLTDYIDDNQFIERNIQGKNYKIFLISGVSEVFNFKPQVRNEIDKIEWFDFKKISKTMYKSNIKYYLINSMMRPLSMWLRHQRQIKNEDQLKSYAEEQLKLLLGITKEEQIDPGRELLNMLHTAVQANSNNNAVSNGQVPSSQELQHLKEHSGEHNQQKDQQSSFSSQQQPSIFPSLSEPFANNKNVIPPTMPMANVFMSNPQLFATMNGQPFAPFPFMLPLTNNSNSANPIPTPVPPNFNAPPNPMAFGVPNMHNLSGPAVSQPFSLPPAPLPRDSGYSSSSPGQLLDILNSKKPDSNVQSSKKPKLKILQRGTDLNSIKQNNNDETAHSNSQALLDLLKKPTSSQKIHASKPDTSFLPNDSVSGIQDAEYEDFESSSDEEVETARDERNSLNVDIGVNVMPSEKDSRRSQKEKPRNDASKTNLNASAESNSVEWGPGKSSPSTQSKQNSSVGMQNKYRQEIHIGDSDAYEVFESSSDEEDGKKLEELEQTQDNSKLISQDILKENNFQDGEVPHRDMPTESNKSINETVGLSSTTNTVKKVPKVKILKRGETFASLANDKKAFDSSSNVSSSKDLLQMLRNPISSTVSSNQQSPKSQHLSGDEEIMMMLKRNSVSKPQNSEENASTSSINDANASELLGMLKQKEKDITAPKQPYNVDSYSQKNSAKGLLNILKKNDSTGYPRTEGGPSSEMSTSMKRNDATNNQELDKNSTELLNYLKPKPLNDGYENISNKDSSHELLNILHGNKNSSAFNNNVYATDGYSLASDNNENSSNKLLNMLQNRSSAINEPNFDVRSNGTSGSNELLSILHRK

[2] = test system: T2, Dcp2 1-300 (Saccharomyces cerevisiae); details: EMSA: 10 nM Alexa Fluor 647 RPL41A RNA, 300 mM KOAc, 10 mM MES pH 7 or 5.8, 5 mM BME; temperature not given in material
T2 sequence: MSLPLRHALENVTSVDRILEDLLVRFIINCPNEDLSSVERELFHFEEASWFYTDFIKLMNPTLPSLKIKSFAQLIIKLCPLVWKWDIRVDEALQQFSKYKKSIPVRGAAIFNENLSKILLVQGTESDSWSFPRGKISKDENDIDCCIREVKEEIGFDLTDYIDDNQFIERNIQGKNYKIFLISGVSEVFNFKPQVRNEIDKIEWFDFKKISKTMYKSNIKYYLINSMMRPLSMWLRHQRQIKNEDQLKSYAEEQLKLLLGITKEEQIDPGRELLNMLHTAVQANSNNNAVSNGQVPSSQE

[3] = test system: Dcp2 H237A (Saccharomyces cerevisiae); details: pH 5.8; EMSA: 10 nM Alexa Fluor 647 RPL41A RNA, 300 mM KOAc, 10 mM MES pH 7 or 5.8, 5 mM BME; temperature not given in material
[4] = test system: T3, Dcp1 (Saccharomyces cerevisiae); details: EMSA: 10 nM Alexa Fluor 647 RPL41A RNA, 300 mM KOAc, 10 mM MES pH 7 or 5.8, 5 mM BME; temperature not given in material
T3 sequence: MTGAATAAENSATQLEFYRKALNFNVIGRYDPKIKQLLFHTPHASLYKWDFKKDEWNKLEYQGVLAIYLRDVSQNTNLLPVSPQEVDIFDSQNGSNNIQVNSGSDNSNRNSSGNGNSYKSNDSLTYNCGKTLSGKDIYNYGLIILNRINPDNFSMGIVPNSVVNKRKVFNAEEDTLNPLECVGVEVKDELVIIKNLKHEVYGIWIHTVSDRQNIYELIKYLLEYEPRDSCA

Substance: RPL41A RNA (60 nt)
- binding signal (fold tighter at pH 5.8 than at pH 7) [1]: > 16
- Kd [2]: > 20 µM
- binding signal (fold lower affinity than wild type) [3]: 2
- Kd [4]: > 20 µM

Source: PMC10083542
